# Ends that are not written are not given here.
# B1: VEPEP-3a (peptide)
# peptide: XKWFERWFREWPRKRR
# HELM: PEPTIDE1{[ac].[bAla].K.W.F.E.R.W.F.R.E.W.P.R.K.R.R.[SCCN[*:1]]}$$$$V2.0
# SMILES: CC(=O)NCCC(=O)N[C@@H](CCCCN)C(=O)N[C@@H](Cc1c[nH]c2ccccc12)C(=O)N[C@@H](Cc1ccccc1)C(=O)N[C@@H](CCC(=O)O)C(=O)N[C@@H](CCCNC(=N)N)C(=O)N[C@@H](Cc1c[nH]c2ccccc12)C(=O)N[C@@H](Cc1ccccc1)C(=O)N[C@@H](CCCNC(=N)N)C(=O)N[C@@H](CCC(=O)O)C(=O)N[C@@H](Cc1c[nH]c2ccccc12)C(=O)N1CCC[C@H]1C(=O)N[C@@H](CCCNC(=N)N)C(=O)N[C@@H](CCCCN)C(=O)N[C@@H](CCCNC(=N)N)C(=O)N[C@@H](CCCNC(=N)N)C(=O)NCCS
# notes: Synthetic cell-penetrating peptide
# B2: C4 (peptide)
# peptide: KKQVRMAHLVLT
# modifications: not fully specified
# B3: PC4, also noted PC4D (peptide)
# peptide: RWTEWEWW
# modifications: also: cyclic version, linkage not given here
# B4: C2 (peptide)
# peptide: KKQVLAMEHLVT
# modifications: not fully specified
# How the values were obtained:
# HIV integrase = HIV integrase (HIV-1-LAI, UniProt P03367 1160-1447); assay: cell-based or functional assay
# C2 = molecular target: B4; assay: fluorescence titration, curve fitting
# C4 = molecular target: B2; assay: fluorescence titration, curve fitting
# PC4, also noted PC4D = molecular target: B3; assay: fluorescence titration, curve fitting
# CDK4/cyclin D complex = CDK4/cyclin D complex (UniProt P11802 2-303); assay: cell-based or functional assay
# CDK4/cyclin D complex, sequence (P11802 2-303, one chain of several): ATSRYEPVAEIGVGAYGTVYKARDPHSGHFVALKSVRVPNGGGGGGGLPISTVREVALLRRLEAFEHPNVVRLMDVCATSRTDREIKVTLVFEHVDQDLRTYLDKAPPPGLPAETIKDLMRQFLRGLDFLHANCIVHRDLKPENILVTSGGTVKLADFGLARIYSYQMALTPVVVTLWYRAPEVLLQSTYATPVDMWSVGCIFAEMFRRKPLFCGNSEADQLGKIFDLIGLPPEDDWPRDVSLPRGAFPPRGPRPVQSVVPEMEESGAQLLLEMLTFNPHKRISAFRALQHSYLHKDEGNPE
# cdk2/cyclin A complex = cdk2/cyclin A complex (UniProt P24941 1-298; P20248 1-432); assay: cell-based or functional assay
binder,measurement,setting,value
"KWETWWET [PC6, also noted PC6D]","IC50, antiviral activity (RT activity in supernatants of HIV-1 LAI infected PBMC), peptide with VEPEP-3 carrier",HIV integrase,0.09 nM
B1,binding result,C2,binds
same,binding result,C4,binds
same,Kd,"PC4, also noted PC4D",50 to 100 nM
B2,"IC50, proliferation of HEK-2 cells (C4 delivered by VEPEP-3)",CDK4/cyclin D complex,78 nM
same,"IC50, proliferation of Hela cells (C4 delivered by VEPEP-3)",CDK4/cyclin D complex,35 nM
same,"IC50, proliferation of MCF7 cells (C4 delivered by VEPEP-3)",CDK4/cyclin D complex,58 nM
B3,"IC50, antiviral activity (RT activity in supernatants of HIV-1 LAI infected PBMC), peptide with VEPEP-3 carrier",HIV integrase,0.12 nM
B4,"IC50, proliferation of HEK-2 cells (C2 delivered by VEPEP-3)",cdk2/cyclin A complex,102 nM
same,"IC50, proliferation of Hela cells (C2 delivered by VEPEP-3)",cdk2/cyclin A complex,37 nM

# From patent US20190046652A1 (AADIGEN, published 2019)
